Test results taken from US20250215412A1 (NOVOZYMES A S, published 2025).

Key:
Experiment in all cases: cell-based or functional assay
[1] = molecular target: T1, Chryseobacterium gambrini deamidase polypeptide, wildtype, with His-tag (Chryseobacterium gambrini)
T1 chain: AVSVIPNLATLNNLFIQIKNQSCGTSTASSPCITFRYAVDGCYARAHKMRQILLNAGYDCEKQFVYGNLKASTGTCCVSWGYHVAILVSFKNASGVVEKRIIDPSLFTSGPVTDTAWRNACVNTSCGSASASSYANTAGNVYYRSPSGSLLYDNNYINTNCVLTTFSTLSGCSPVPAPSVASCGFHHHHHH

[2] = molecular target: T2, Chryseobacterium culicis deamidase polypeptide, wildtype, with His-tag (Chryseobacterium culicis)
T2 chain: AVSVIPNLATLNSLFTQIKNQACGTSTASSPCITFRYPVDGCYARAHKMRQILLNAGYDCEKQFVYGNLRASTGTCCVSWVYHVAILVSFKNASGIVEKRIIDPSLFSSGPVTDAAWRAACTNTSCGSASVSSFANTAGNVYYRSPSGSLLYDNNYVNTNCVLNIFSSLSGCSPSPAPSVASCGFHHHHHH

[3] = molecular target: T3, Chryseobacterium proteolyticum deamidase polypeptide, wildtype, with His-tag (Chryseobacterium proteolyticum, UniProt Q9AQQ8 136-320)
T3 sequence: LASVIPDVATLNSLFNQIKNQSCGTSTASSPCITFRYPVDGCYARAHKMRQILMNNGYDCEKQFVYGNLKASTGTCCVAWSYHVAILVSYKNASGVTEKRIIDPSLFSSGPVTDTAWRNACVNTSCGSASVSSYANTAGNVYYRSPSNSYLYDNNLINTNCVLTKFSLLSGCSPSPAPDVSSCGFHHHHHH

[4] = molecular target: T4, Chryseobacterium defluvii deamidase polypeptide, wildtype, with His-tag (Chryseobacterium defluvii)
T4 chain: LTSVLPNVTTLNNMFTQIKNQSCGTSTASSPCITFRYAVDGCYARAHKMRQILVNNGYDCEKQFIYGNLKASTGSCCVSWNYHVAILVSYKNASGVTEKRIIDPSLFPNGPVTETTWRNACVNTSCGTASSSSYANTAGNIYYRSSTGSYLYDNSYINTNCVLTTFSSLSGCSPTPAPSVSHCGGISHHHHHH

B1: Chryseobacterium gambrini propeptide, wildtype (other)
chain: NQDPNLVVKENNENAMRDFGSTIPVGIQKEGNVLKVSFIISAQFYEIKDSKENEAFISMIKSAIENETPVHVFLKKNSNEIAKVEKATDEDVTYFKSIFTKEVKEENRK
With B1 the “NanoDSF thermal unfolding temperature” value [1] was 89.3 ° C.

B2: Chryseobacterium culicis propeptide, wildtype (other)
chain: NQDPNLVAKESNEIAMKDFGKTVPVGIEKEEGKFKVSFMVSAQPYHIKDSKENAGYISMIRQAVENETPVHIFLKTNTNEIAKVDKPTDDDIRYFKSVFTKEVKEENRK
For B2, the “NanoDSF thermal unfolding temperature” value [2] was 85.2 ° C.

B3: Chryseobacterium proteolyticum propeptide, wildtype (other)
chain: NQEINGKEKLSVNDSKLKDFGKTVPVGIDEENGMIKVSFMLTAQFYEIKPTKENEQYIGMLRQAVKNESPVHIFLKPNSNEIGKVESASPEDVRYFKTILTKEVKEENRK
For B3, the “NanoDSF thermal unfolding temperature” value [3] was 87.3 ° C.

B4: Chryseobacterium defluvii propeptide, wildtype (other)
chain: ATNQDVVGKENTSNHVAARDFGKTVPVGINEENGTLKVSFILSAQFYEIKPSKENEEYISLIRQAIQNESPIHVFMKLNSNEIVKVEKGTEEDVKYFRSILTKEVKEENRK
B4 was tested, and the “NanoDSF thermal unfolding temperature” value [4] was 89 ° C.
